First the molecules themselves.
B1: ZNF263 (parent)
chain: KPYKCTLCGENFSHRSNLIRHQRI
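Note: lentivirally expressed fusions sorted by FACS into six bins by GFP to DsRed ratio, PSI derived from sequencing read proportions per bin multiplied by bin number.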

The variants in this data set derive from B1. Briefly: protein stability index of a GFP-peptide fusion (GPS, HEK-293T) (PSI 1-6); higher = more stable. Conditions: c terminus: a fixed tail appended.
In the case of KPYKCTLCGENFSHRSVLIRHQRI [N17V], the protein stability index is 1.7.

On to KPYKCTLCGENFSHRSDLIRHQRI [N17D], for which the protein stability index worked out at 3.88.

With KPYKCTLCGENFSHRSPLIRHQRI [N17P], the protein stability index was 1.87.

As to KPYKCTLCGEGFSHRSNLIRHQRI [N11G], the protein stability index is 2.52.

Consider KPYKCTLCGEIFSHRSNLIRHQRI [N11I], for which the protein stability index worked out at 3.18.

For the variant KPYKCTLCGEKFSHRSNLIRHQRI [N11K], the protein stability index stood at 2.98.

Consider KPYKCTLCGEWFSHRSNLIRHQRI [N11W], for which the protein stability index was 2.25.

Consider KPYKCTLCGEYFSHRSNLIRHQRI [N11Y], for which the protein stability index amounted to 2.8.

Consider KPYKCTLCGEEFSHRSNLIRHQRI [N11E], for which the protein stability index worked out at 3.23.

Take KPYKCTLCGETFSHRSNLIRHQRI [N11T]: the protein stability index worked out at 3.59.

Take KPYKCTLCGEVFSHRSNLIRHQRI [N11V]: the protein stability index stood at 2.83.

Take KPYKCTLCGELFSHRSNLIRHQRI [N11L]: the protein stability index was found to be 2.69.

As to KPYKCTLCGEDFSHRSNLIRHQRI [N11D], the protein stability index stood at 2.23.

For the variant KPYKCTLCGERFSHRSNLIRHQRI [N11R], the protein stability index amounted to 3.03.

Take KPYKCTLCGESFSHRSNLIRHQRI [N11S]: the protein stability index came to 2.8.

For KPYKCTLCGECFSHRSNLIRHQRI [N11C], the protein stability index worked out at 3.11.

For the variant KPYKCTLCGEMFSHRSNLIRHQRI [N11M], the protein stability index worked out at 3.49.

As to KPYKCTLCGEAFSHRSNLIRHQRI [N11A], the protein stability index came out at 2.72.

In the case of KPYKCTLCGEQFSHRSNLIRHQRI [N11Q], the protein stability index turned out to be 2.62.

For the variant KPYKCTLCGEHFSHRSNLIRHQRI [N11H], the protein stability index was found to be 3.33.

As to KPYKCTLCGEFFSHRSNLIRHQRI [N11F], the protein stability index was found to be 2.61.

Turning to KPYKCTLCGEPFSHRSNLIRHQRI [N11P], the protein stability index was 1.8.

Consider KPYKCTLCGENFSHRSNLKRHQRI [I19K], for which the protein stability index is 2.65.

Regarding KPYKCTLCGENFSHRSNLDRHQRI [I19D], the protein stability index was found to be 2.74.

With KPYKCTLCGENFSHRSNLTRHQRI [I19T], the protein stability index is 2.5.

Regarding KPYKCTLCGENFSHRSNLWRHQRI [I19W], the protein stability index amounted to 1.5.

Turning to KPYKCTLCGENFSHRSNLQRHQRI [I19Q], the protein stability index was determined as 2.44.

Consider KPYKCTLCGENFSHRSNLARHQRI [I19A], for which the protein stability index is 2.57.

Regarding KPYKCTLCGENFSHRSNLGRHQRI [I19G], the protein stability index worked out at 3.08.

For the variant KPYKCTLCGENFSHRSNLHRHQRI [I19H], the protein stability index was determined as 2.33.

Regarding KPYKCTLCGENFSHRSNLFRHQRI [I19F], the protein stability index is 1.88.

Consider KPYKCTLCGENFSHRSNLPRHQRI [I19P], for which the protein stability index stood at 2.11.

For the variant KPYKCTLCGENFSHRSNLERHQRI [I19E], the protein stability index is 2.89.

In the case of KPYKCTLCGENFSHRSNLMRHQRI [I19M], the protein stability index came to 2.62.

In the case of KPYKCTLCGENFSHRSNLNRHQRI [I19N], the protein stability index was 1.77.

For KPYKCTLCGENFSHRSNLCRHQRI [I19C], the protein stability index was 4.18.

With KPYKCTLCGENFSHRSNLVRHQRI [I19V], the protein stability index stood at 2.54.

As to KPYKCTLCGENFSHRSNLYRHQRI [I19Y], the protein stability index came to 2.3.

Turning to KPYKCTLCGENFSHRSNLLRHQRI [I19L], the protein stability index came to 2.32.

For KPYKCTLCGENFSHRSNLSRHQRI [I19S], the protein stability index is 1.88.

For KPYKCTLCGENFSHRSNLRRHQRI [I19R], the protein stability index turned out to be 2.9.

Take KPYKCTLCGENFSHRSNLIHHQRI [R20H]: the protein stability index was found to be 1.76.

KPYKCTLCGENFSHRSNLILHQRI [R20L]: the protein stability index came to 2.15.

Regarding KPYKCTLCGENFSHRSNLICHQRI [R20C], the protein stability index was 2.45.

KPYKCTLCGENFSHRSNLISHQRI [R20S]: the protein stability index stood at 1.8.

As for KPYKCTLCGENFSHRSNLIDHQRI [R20D], the protein stability index was 2.84.

Consider KPYKCTLCGENFSHRSNLIPHQRI [R20P], for which the protein stability index was determined as 1.7.

On to KPYKCTLCGENFSHRSNLIEHQRI [R20E], for which the protein stability index came to 3.12.

Take KPYKCTLCGENFSHRSNLIMHQRI [R20M]: the protein stability index came to 2.22.

Regarding KPYKCTLCGENFSHRSNLIGHQRI [R20G], the protein stability index is 2.37.

For KPYKCTLCGENFSHRSNLIIHQRI [R20I], the protein stability index is 1.81.

KPYKCTLCGENFSHRSNLIFHQRI [R20F]: the protein stability index was 2.58.

For the variant KPYKCTLCGENFSHRSNLINHQRI [R20N], the protein stability index is 2.38.

Take KPYKCTLCGENFSHRSNLIQHQRI [R20Q]: the protein stability index worked out at 2.6.

Take KPYKCTLCGENFSHRSNLIKHQRI [R20K]: the protein stability index was determined as 2.67.

With KPYKCTLCGENFSHRSNLIAHQRI [R20A], the protein stability index stood at 2.43.

KPYKCTLCGENFSHRENLIRHQRI [S16E]: the protein stability index came to 2.53.

With KPYKCTLCGENFSHRWNLIRHQRI [S16W], the protein stability index is 2.43.

For the variant KPYKCTLCGENFSHRRNLIRHQRI [S16R], the protein stability index worked out at 3.92.

For the variant KPYKCTLCGENFSHRKNLIRHQRI [S16K], the protein stability index was 3.28.

As to KPYKCTLCGENFSHRYNLIRHQRI [S16Y], the protein stability index came to 2.91.

As for KPYKCTLCGENFSHRTNLIRHQRI [S16T], the protein stability index turned out to be 1.65.

On to KPYKCTLCGENFSHRQNLIRHQRI [S16Q], for which the protein stability index was determined as 2.81.

In the case of KPYKCTLCGENFSHRINLIRHQRI [S16I], the protein stability index came to 2.41.

Consider KPYKCTLCGENFSHRMNLIRHQRI [S16M], for which the protein stability index stood at 2.26.

In the case of KPYKCTLCGENFSHRLNLIRHQRI [S16L], the protein stability index was determined as 2.88.

With KPYKCTLCGENFSHRNNLIRHQRI [S16N], the protein stability index is 2.13.

Consider KPYKCTLCGENFSHRDNLIRHQRI [S16D], for which the protein stability index turned out to be 2.74.

Regarding KPYKCTLCGENFSHRVNLIRHQRI [S16V], the protein stability index came to 1.87.

With KPYKCTLCGENFSHRFNLIRHQRI [S16F], the protein stability index was determined as 2.02.

As to KPYKCTLCGENFSHRGNLIRHQRI [S16G], the protein stability index is 1.94.

For the variant KPYKCTLCGENFSHRHNLIRHQRI [S16H], the protein stability index was 2.76.

Regarding KPYKCTLCGENFSHRANLIRHQRI [S16A], the protein stability index worked out at 2.04.

As to KPYKCTLCGENFSHRPNLIRHQRI [S16P], the protein stability index was 1.77.

For KPYKCTLCGENFSHRCNLIRHQRI [S16C], the protein stability index amounted to 2.41.

For the variant KPYKCTLCGENFPHRSNLIRHQRI [S13P], the protein stability index was determined as 2.45.

In the case of KPYKCTLCGENFMHRSNLIRHQRI [S13M], the protein stability index stood at 2.52.

Regarding KPYKCTLCGENFKHRSNLIRHQRI [S13K], the protein stability index was 2.38.

As for KPYKCTLCGENFRHRSNLIRHQRI [S13R], the protein stability index amounted to 3.45.

In the case of KPYKCTLCGENFQHRSNLIRHQRI [S13Q], the protein stability index is 2.84.

As for KPYKCTLCGENFLHRSNLIRHQRI [S13L], the protein stability index came to 2.32.

As for KPYKCTLCGENFYHRSNLIRHQRI [S13Y], the protein stability index is 2.89.

As for KPYKCTLCGENFWHRSNLIRHQRI [S13W], the protein stability index amounted to 2.53.

Take KPYKCTLCGENFAHRSNLIRHQRI [S13A]: the protein stability index was found to be 2.87.

Take KPYKCTLCGENFIHRSNLIRHQRI [S13I]: the protein stability index is 2.67.

Regarding KPYKCTLCGENFHHRSNLIRHQRI [S13H], the protein stability index turned out to be 2.38.

On to KPYKCTLCGENFCHRSNLIRHQRI [S13C], for which the protein stability index amounted to 2.4.

Consider KPYKCTLCGENFGHRSNLIRHQRI [S13G], for which the protein stability index came to 2.59.

For the variant KPYKCTLCGENFFHRSNLIRHQRI [S13F], the protein stability index was determined as 2.26.

For the variant KPYKCTLCGENFNHRSNLIRHQRI [S13N], the protein stability index came out at 2.35.

For KPYKCTLCGENFEHRSNLIRHQRI [S13E], the protein stability index stood at 2.52.

On to KPYKCTLCGENFDHRSNLIRHQRI [S13D], for which the protein stability index was 2.12.

Consider KPYKCTLCGENFTHRSNLIRHQRI [S13T], for which the protein stability index came out at 2.13.

For the variant KPYKCTLCGENFVHRSNLIRHQRI [S13V], the protein stability index came to 2.39.
